The values below come from paper PMC5508515 (Cell reports, 2016).

The target of data set [1] is IKK1 (1–676) (human) (UniProt O15111). Briefly: SEC.
Data set [2] deals with purified human IKK1 used for single-particle cryo-EM (human) (UniProt O15111). Put plainly: cryo-EM structure.
The target is the same in data set [3]. Briefly: cryo-EM structure. The source holds these as a separate data set.
Data set [4] deals with the molecule itself. Put plainly: SEC. (In general: Size exclusion chromatography separates by hydrodynamic size, large species first.)
Data set [5] deals with T1, HA-IKK1 WT overexpressed in 293T cells (human), O15111.
T1 chain: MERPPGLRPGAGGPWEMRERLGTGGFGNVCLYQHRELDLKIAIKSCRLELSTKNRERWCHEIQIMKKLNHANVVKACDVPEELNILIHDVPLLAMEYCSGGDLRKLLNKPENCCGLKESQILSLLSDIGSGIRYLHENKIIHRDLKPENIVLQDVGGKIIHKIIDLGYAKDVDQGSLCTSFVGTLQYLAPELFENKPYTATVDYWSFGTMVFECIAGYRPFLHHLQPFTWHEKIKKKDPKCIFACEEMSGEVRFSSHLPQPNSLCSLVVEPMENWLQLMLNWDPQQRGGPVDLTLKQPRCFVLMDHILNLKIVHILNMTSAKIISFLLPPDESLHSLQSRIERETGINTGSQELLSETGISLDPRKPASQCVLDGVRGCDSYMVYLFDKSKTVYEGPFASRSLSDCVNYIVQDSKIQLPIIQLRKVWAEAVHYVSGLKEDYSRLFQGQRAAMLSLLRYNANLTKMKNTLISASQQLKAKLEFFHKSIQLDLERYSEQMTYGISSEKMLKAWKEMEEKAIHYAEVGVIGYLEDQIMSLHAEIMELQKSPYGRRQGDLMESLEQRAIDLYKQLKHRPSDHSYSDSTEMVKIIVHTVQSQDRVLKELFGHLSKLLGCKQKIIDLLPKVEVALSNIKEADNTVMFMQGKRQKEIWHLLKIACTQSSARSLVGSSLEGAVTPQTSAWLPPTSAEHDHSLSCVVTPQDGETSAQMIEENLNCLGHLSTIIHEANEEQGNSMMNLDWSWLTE
Briefly: SEC. Conditions: remark: other sources report otherwise.

Data set [6] concerns the molecule itself. Briefly: SEC. This is another data set of the same source.
In data set [7] the target is T2, human IKK1 (residues 10–667; EE) (human), O15111.
T2 chain: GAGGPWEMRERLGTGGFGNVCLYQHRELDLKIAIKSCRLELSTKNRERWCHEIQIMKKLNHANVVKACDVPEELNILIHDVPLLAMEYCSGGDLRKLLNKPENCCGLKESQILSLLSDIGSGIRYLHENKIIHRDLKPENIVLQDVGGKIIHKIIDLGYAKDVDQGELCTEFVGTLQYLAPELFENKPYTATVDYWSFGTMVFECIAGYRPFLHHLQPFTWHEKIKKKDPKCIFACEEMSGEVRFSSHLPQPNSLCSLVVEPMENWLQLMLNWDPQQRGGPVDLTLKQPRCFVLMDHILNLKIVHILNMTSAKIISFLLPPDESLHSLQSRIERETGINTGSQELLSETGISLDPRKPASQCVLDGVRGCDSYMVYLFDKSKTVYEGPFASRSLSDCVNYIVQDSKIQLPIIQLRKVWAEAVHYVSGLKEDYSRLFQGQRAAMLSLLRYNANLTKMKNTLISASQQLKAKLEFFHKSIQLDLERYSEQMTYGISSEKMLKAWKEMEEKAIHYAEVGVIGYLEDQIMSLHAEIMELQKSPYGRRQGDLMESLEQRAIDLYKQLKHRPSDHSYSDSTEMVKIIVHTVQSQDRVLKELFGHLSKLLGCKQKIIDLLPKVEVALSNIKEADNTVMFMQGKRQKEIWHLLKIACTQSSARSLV
Put plainly: crystal structure. Conditions: remark: other sources report otherwise.

Data set [8] has as its target T2, human IKK1 (residues 10–667; EE) …. Briefly: crystal structure. Conditions: remark: other sources report otherwise.

Substitutions are numbered along the chain they refer to. Names may count otherwise. Like-named read-outs stand apart in the source and are kept apart here.

As a reminder, the stoichiometry N is a count of units in the complex or per binding partner.

For “IKK1 (1–676) (from UniProt O15111 1-676) (domain or fragment)”, the stoichiometry N in data set [1] was 2. Molecule “purified human IKK1 used for single-particle cryo-EM (from UniProt O15111 10-660) (enzyme)” showed a stoichiometry N in data set [2] of 2. In data set [3], this molecule yielded a percent of particles not conforming to dimers (hexamer) of 2% and a stoichiometry N of 6.

B1: IKK2 (1–700) (domain or fragment, UniProt O14920 1-700, looked up)
chain: MSWSPSLTTQTCGAWEMKERLGTGGFGNVIRWHNQETGEQIAIKQCRQELSPRNRERWCLEIQIMRRLTHPNVVAARDVPEGMQNLAPNDLPLLAMEYCQGGDLRKYLNQFENCCGLREGAILTLLSDIASALRYLHENRIIHRDLKPENIVLQQGEQRLIHKIIDLGYAKELDQGSLCTSFVGTLQYLAPELLEQQKYTVTVDYWSFGTLAFECITGFRPFLPNWQPVQWHSKVRQKSEVDIVVSEDLNGTVKFSSSLPYPNNLNSVLAERLEKWLQLMLMWHPRQRGTDPTYGPNGCFKALDDILNLKLVHILNMVTGTIHTYPVTEDESLQSLKARIQQDTGIPEEDQELLQEAGLALIPDKPATQCISDGKLNEGHTLDMDLVFLFDNSKITYETQISPRPQPESVSCILQEPKRNLAFFQLRKVWGQVWHSIQTLKEDCNRLQQGQRAAMMNLLRNNSCLSKMKNSMASMSQQLKAKLDFFKTSIQIDLEKYSEQTEFGITSDKLLLAWREMEQAVELCGRENEVKLLVERMMALQTDIVDLQRSPMGRKQGGTLDDLEEQARELYRRLREKPRDQRTEGDSQEMVRLLLQAIQSFEKKVRVIYTQLSKTVVCKQKALELLPKVEEVVSLMNEDEKTVVRLQEKRQKELWNLLKIACSKVRGPVSGSPDSMNASRLSQPGQLMSQPSTASNSLPE
With B1, in data set [4], the “stoichiometry N” value stood at 2.

B2: HA-IKK1 WT overexpressed in 293T cells, O15111 1-745 (enzyme)
chain: T1 chain
Consider B2, for which the stoichiometry N in data set [5] was found to be 2.

B3: HA-IKK1 HY (H578A Y580A) overexpressed in 293T cells (enzyme, human, UniProt O15111 1-745, looked up)
chain: T1 chain with H578A, Y580A
For B3, the “stoichiometry N” value in data set [6] stood at 2.

B4: human IKK1 (residues 10–667; EE), O15111 10-667 (domain or fragment)
chain: T2 chain
For the molecule B4, the stoichiometry N in data set [7] came out at 2; in data set [8], 6.
